Data set [1] concerns the target T1, myc-OGA(1-400) (human, UniProt O60502 1-400).
T1 construct: also called N2; N fragment
T1 sequence: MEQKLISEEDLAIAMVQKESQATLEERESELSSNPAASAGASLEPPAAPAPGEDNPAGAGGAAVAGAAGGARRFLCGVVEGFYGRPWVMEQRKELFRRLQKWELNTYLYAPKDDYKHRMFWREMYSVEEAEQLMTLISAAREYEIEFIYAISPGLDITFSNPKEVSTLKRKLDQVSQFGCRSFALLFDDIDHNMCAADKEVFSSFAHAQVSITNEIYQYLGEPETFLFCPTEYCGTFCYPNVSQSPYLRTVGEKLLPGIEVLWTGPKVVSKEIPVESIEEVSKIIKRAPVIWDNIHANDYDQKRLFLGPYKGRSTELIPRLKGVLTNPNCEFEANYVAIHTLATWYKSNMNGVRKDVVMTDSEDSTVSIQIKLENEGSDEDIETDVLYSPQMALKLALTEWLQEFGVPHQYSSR
Nature of the data set: co-immunoprecipitation (anti-c-Myc / anti-HA magnetic beads) from HEK 293T lysates, immunoblot. On the procedure:
The asterisk indicates IgG heavy chain from anti-c-Myc magnetic beads. […] In FIG. 9A and FIG. 9C, activities of fragments alone or pairs with/without nGFP were evaluated on GFP-Nup62, which was enriched by beads against EPEA tag and blotted with RL2 antibody to reveal O-GlcNAc modification level. D174N is a catalytically impaired mutation on OGA. Anti-myc and anti-HA blots detect expression of full-length (fl-OGA) or N-terminal fragment, and C-terminal fragment, respectively. WCL, whole cell lysates. The data in FIGS. 9A-9C are representative of at least two biological replicates.
For immunoprecipitation of proteins with anti-HA (Pierce, 88836) or anti-c-Myc (Pierce, 88842) magnetic beads, cell lysates with equal amounts of protein were diluted with 1×TBS-T buffer (25 mM Tris HCl pH 7.4, 150 mM NaCl, 0.05% Tween-20) and incubated with pre-washed magnetic beads at room temperature for 30 min with mixing, following the manufacturer's instructions. Anti-HA magnetic beads were washed three times with TBS-T buffer and once with ultrapure water. Anti-c-Myc magnetic beads were washed three times with 5×TBS-T buffer and once with ultrapure water. The enriched proteins were eluted with SDS sample buffer and subjected to SDS-PAGE.
For orientation: A western blot detects proteins with antibodies after separation by electrophoresis.

Data set [2] has as its system GFP-Nup62. Nature of the data set: Deglycosylation of GFP-Nup62 co-expressed with OGA constructs (anti-EPEA enrichment, RL2 immunoblot). Type of data set: cell-based, human. The conditions noted are these: for deglycosidase activity on GFP-Nup62 of N fragment: N fragment paired with C1 (aa 414-916). On the procedure: HEK 293T cells were cultured in Dulbecco's Modified Eagle Medium (DMEM, Cat #11995073) supplemented with penicillin (50 μg/mL) and streptomycin (50 μg/mL) along with 10% (v/v) FBS. Transfections of all plasmids in this study were performed using TransIT-PRO® (Mirus Bio, Cat #MIR 5740) according to the manufacturer's instructions.
Glycoproteins Nup62, Sp1, JunB, c-Jun were subcloned into pcDNA3.1 vector with a GFP and a Flag-tag or a BC2 tag in the N-terminus and an EPEA tag in the C terminus respectively, unless otherwise noted. For all split OGA constructs with or without the fusion of nanobody GFP, N fragments were tagged with myc tag and C fragments were tagged with HA tag respectively. Human SP1 cDNA ORF plasmid (Cat #HG12024-G), human c-Fos cDNA ORF plasmid, and human OGT cDNA ORF cloned with a C-terminal His tag (Cat #HG11279-M) were purchased from Sino Biological. For subcloning, PCR fragments were amplified using Q5 High-Fidelity 2× Master Mix (New England BioLabs, Cat #M0492S). The vectors were double-digested and ligated to gel-purified PCR products by T4 ligation using T4 DNA ligase (New England BioLabs, Cat #M0202S) or by Gibson assembly using Gibson Assembly Master mix (New England BioLabs, Cat #E2611L). c-Fos was subcloned into a pcDNA3.1 vector with a 14-residue Ubc tag (amino acids: QADQEAKELARQIA (SEQ ID NO: 11)), Flag tag, and EPEA tag at the C terminus. All nanobody DNA fragments were synthesized by IDT.
After 36-48 h of transfection, cells were harvested and washed with PBS once. Cells were lysed with M-PER lysis buffer containing 1× protease inhibitor cocktail and 10 μM Thiamet-G unless otherwise noted. Protein concentrations were determined by the BCA assay kit (G-Biosciences, 786) on a multi-mode microplate reader FilterMax F3 (Molecular Devices LLC, Sunnyvale, CA).
For immunoprecipitation of proteins with the C-terminal EPEA tag, cell lysates with equal amounts of protein were diluted with PBS and incubated with C-tag affinity matrix (Thermo Scientific) for 1 h at room temperature, with end-to-end rotation, following the manufacturer's instructions. After washing three times with PBS buffer, the enriched proteins were eluted with SDS sample buffer and subjected to SDS-PAGE.
For immunoblotting analysis, proteins were transferred to a nitrocellulose membrane using iBlot (Thermo Scientific). Membranes were blocked with Tris buffered saline containing 0.1% Tween-20 and 5% BSA and incubated with the primary antibodies (1:1000 dilution) and the secondary antibodies (1:10,000 dilution) sequentially. Immunoblot images were captured by Azure Imager C600. Analysis of immunoblots was conducted with Fiji ImageJ. All IR fluorescence western blot images are converted into grayscale images by Fiji ImageJ. The unsaturated exposure of immunoblot images was used for quantification with the appropriate loading controls as standards. Statistical analysis of the data was performed with Prism 8, using data from at least three independent experiments.

Data set [3] has as its target T2, HA-OGA(414-916), O60502.
T2 chain: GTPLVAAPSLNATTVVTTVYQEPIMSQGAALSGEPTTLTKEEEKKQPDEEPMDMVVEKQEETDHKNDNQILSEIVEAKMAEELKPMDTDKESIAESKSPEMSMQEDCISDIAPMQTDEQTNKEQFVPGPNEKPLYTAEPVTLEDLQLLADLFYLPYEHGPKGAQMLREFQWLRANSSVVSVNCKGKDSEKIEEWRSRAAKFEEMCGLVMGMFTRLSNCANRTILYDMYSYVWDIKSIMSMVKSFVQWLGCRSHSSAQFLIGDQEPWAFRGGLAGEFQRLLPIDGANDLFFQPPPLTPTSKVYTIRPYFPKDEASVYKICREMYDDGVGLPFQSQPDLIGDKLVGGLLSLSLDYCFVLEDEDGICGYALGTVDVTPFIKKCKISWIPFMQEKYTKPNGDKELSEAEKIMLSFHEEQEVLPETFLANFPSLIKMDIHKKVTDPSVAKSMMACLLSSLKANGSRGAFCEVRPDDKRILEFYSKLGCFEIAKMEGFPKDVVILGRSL

“Also recorded” adds a separate entry of the source.

The values that follow come from patent US20240043528A1, “NANOBODY-OGA FUSIONS AND USES THEREOF” (President and Fellows of Harvard College, priority 2020, published 2024).

B1: HA-OGA(554-706) (enzyme, human, UniProt O60502 554-706, looked up)
chain: TLEDLQLLADLFYLPYEHGPKGAQMLREFQWLRANSSVVSVNCKGKDSEKIEEWRSRAAKFEEMCGLVMGMFTRLSNCANRTILYDMYSYVWDIKSIMSMVKSFVQWLGCRSHSSAQFLIGDQEPWAFRGGLAGEFQRLLPIDGANDLFFQPP
notes: range 554-706; the legend prints C4; also called C4; not shown: N-terminal HA tag
In the case of B1, the binding result in data set [1] is “no binding”.

B2: OGA(cat): catalytic domain of OGA alone, residues 1-366, myc tag (protein, UniProt O60502 1-366, looked up, fragment)
chain: MVQKESQATLEERESELSSNPAASAGASLEPPAAPAPGEDNPAGAGGAAVAGAAGGARRFLCGVVEGFYGRPWVMEQRKELFRRLQKWELNTYLYAPKDDYKHRMFWREMYSVEEAEQLMTLISAAREYEIEFIYAISPGLDITFSNPKEVSTLKRKLDQVSQFGCRSFALLFDDIDHNMCAADKEVFSSFAHAQVSITNEIYQYLGEPETFLFCPTEYCGTFCYPNVSQSPYLRTVGEKLLPGIEVLWTGPKVVSKEIPVESIEEVSKIIKRAPVIWDNIHANDYDQKRLFLGPYKGRSTELIPRLKGVLTNPNCEFEANYVAIHTLATWYKSNMNGVRKDVVMTDSEDSTVSIQIKLENEGSDE
modifications: catalytic domain myc tag
notes: catalytic domain of OGA alone, residues 1-366, myc tag
B2: in data set [2] (HEK 293T cells), the “deglycosidase activity on GFP-Nup62 of N fragment” value is recorded as “no activity was seen on GFP-Nup62”. Moreover, the “deglycosidase activity / O-GlcNAc modification level on GFP-Nup62” value in data set [2] (co-expressed in HEK 293T cells) was “inactive”. In data set [2] (nGFP fused to a fragment, HEK 293T cells, listed as N3), the “deglycosidase activity on GFP-Nup62 after fusion of nGFP” value is listed as “could not be recovered; also recorded: unable to reconstitute OGA's activity with any C-fragments shown in this study even in the presence of nGFP”.

B3: myc-OGA(1-413) (protein)
chain: MVQKESQATLEERESELSSNPAASAGASLEPPAAPAPGEDNPAGAGGAAVAGAAGGARRFLCGVVEGFYGRPWVMEQRKELFRRLQKWELNTYLYAPKDDYKHRMFWREMYSVEEAEQLMTLISAAREYEIEFIYAISPGLDITFSNPKEVSTLKRKLDQVSQFGCRSFALLFDDIDHNMCAADKEVFSSFAHAQVSITNEIYQYLGEPETFLFCPTEYCGTFCYPNVSQSPYLRTVGEKLLPGIEVLWTGPKVVSKEIPVESIEEVSKIIKRAPVIWDNIHANDYDQKRLFLGPYKGRSTELIPRLKGVLTNPNCEFEANYVAIHTLATWYKSNMNGVRKDVVMTDSEDSTVSIQIKLENEGSDEDIETDVLYSPQMALKLALTEWLQEFGVPHQYSSRQVAHSGAKASVVD
On to B3, for which, in data set [3], the “deglycosidase activity on GFP-Nup62 (O-GlcNAc RL2 immunoblot)” value is “The N- and C-terminal fragments can associate to reconstitute OGA enzymatic activity when co-expressed simultaneously in living cells”.

B4: N2: myc-OGA(1-400) N fragment (SEQ ID NO: 4) (protein)
chain: MEQKLISEEDLAIAMVQKESQATLEERESELSSNPAASAGASLEPPAAPAPGEDNPAGAGGAAVAGAAGGARRFLCGVVEGFYGRPWVMEQRKELFRRLQKWELNTYLYAPKDDYKHRMFWREMYSVEEAEQLMTLISAAREYEIEFIYAISPGLDITFSNPKEVSTLKRKLDQVSQFGCRSFALLFDDIDHNMCAADKEVFSSFAHAQVSITNEIYQYLGEPETFLFCPTEYCGTFCYPNVSQSPYLRTVGEKLLPGIEVLWTGPKVVSKEIPVESIEEVSKIIKRAPVIWDNIHANDYDQKRLFLGPYKGRSTELIPRLKGVLTNPNCEFEANYVAIHTLATWYKSNMNGVRKDVVMTDSEDSTVSIQIKLENEGSDEDIETDVLYSPQMALKLALTEWLQEFGVPHQYSSR
modifications: myc tag
Take B4: the “deglycosidase activity on GFP-Nup62 of N fragment” value in data set [2] (HEK 293T cells) was “possessed deglycosylation capability when paired with C1”.
